Data published in patent publication US20190211104A1 (Merck KGaA, published 2019).

Target: T1, carboxyterminal peptide of PD-L1 (SEQ ID NO: 1, RLRKGRMMDVKKCGIQDTNSKKQSDTHLEET) (human)
T1 construct: The immunogen was the KLH-coupled peptide; also called immunogen
T1 peptide: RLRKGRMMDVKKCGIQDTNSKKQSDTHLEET
Experiment: ELISA, wells coated with the peptide immunogen

B1: inventive antibody clone MKP1A07310 (rabbit monoclonal recombinant anti-PD-L1 antibody) (antibody, V domains shown)
VH: QEQLVESGGGLVTPGGSLTLTCTVSTIDLSTFAISWVRQAPGKGLEWIGTINTDLTTYYVNWAKGRFTISKTSSTTVDLKMTGLTIEDTATYFCARKLFGNGNVWGPGTLVTVSS
VL: QVLTQTPSPVSASVGSTVTINCQASQSLHRNNYLSWFQQKPGQPPKQLIYQASTLASGVSSRFSGSGSGTQFTLTISDVVCDDAATYYCLGGVSGGPYPFGGGTEVVVKG
notes: Rabbit monoclonal, produced as recombinant antibody in HEK-293 cells; VH 110, VL 111) and calls clone MKP1A07310 'the inventive antibody'; also called MKP1A7310; MKP-1A-73-10
- binding result: binds
